US20020150888A1 (published 2002)
Like-named read-outs stand apart in the source and are kept apart here.

B1: FLAG-tagged 88C receptor (receptor)
chain: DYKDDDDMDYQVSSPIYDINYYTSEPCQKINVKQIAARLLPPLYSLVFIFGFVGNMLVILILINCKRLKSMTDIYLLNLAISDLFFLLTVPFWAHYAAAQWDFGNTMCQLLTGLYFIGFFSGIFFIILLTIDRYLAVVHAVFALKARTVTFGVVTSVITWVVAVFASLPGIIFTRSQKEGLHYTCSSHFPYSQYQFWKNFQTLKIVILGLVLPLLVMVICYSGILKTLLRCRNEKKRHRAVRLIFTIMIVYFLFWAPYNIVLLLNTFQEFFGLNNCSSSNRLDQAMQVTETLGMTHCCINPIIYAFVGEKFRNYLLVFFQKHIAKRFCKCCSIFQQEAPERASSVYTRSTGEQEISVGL
B2: RANTES (ligand, UniProt P13501 24-91, looked up)
chain: SPYSSDTTPCCFAYIARPLPRAHIKEYFYTSGKCSNPAVVFVTRKNRQVCANPEKKWVREYINSLEMS
B3: MIP-1β (ligand, UniProt P13236 24-92, looked up)
chain: APMGSDPPTACCFSYTARKLPRNFVVDYYETSSLCSQPAVVFQTKRSKQVCADPSESWVQEYVYDLELN
notes: also called MIP-1p

Tests used:
[1] = target: FLAG-tagged 88C receptor (human); experiment: competition of unlabelled ligand with 1.5 nM 125I-MIP-1β on HEK-293 cells transfected with FLAG-tagged 88C
[2] = target: FLAG-tagged 88C receptor (human); experiment: cell-based or functional assay
[3] = target: B3; experiment: equilibrium binding of 125I-MIP-1β to HEK-293 cells transfected with FLAG-tagged 88C, Scatchard analysis
[4] = target: B1; experiment: cell-based or functional assay
[5] = target: B1; experiment: competition of unlabelled ligand with 1.5 nM 125I-MIP-1β on HEK-293 cells transfected with FLAG-tagged 88C

| Molecule | IC50 [1] [nM] | EC50 of inositol phosphate formation (phospholipase C assay, COS-7 cells co-transfected with Gqi5) [2] [nM] | Kd [3] [nM] | EC50 of inositol phosphate formation (phospholipase C assay, COS-7 cells co-transfected with Gqi5) [4] [nM] | IC50 [5] [nM] |
| --- | --- | --- | --- | --- | --- |
| MIP-1α (from UniProt P10147 24-92) (ligand) | 7.4 | 22 | – | – | – |
| B1 | – | – | 1.6 | – | – |
| B2 | – | – | – | 1 | 6.9 |
| B3 | – | – | – | 6 | 7.4 |
